Experimental data taken from IntAct's records for PubMed 18946488.

B1: Rho-related GTP-binding protein RhoE (Mus musculus), P61588 (parent)
chain: MKERRASQKLSSKSIMDPNQNVKCKIVVVGDSQCGKTALLHVFAKDCFPENYVPTVFENYTASFEIDTQRIELSLWDTSGSPYYDNVRPLSYPDSDAVLICFDISRPETLDSVLKKWKGEIQEFCPNTKMLLVGCKSDLRTDVSTLVELSNHRQTPVSYDQGANMAKQIGAATYIECSALQSENSVRDIFHVATLACVNKTNKNVKRNKSQRATKRISHMPSRPELSAVATDLRKDKAKSCTVM

Variants of: B1
Conditions: with rock1_mouse Rock1, P70335
Sequence of rock1_mouse Rock1, P70335 (P70335 whole entry): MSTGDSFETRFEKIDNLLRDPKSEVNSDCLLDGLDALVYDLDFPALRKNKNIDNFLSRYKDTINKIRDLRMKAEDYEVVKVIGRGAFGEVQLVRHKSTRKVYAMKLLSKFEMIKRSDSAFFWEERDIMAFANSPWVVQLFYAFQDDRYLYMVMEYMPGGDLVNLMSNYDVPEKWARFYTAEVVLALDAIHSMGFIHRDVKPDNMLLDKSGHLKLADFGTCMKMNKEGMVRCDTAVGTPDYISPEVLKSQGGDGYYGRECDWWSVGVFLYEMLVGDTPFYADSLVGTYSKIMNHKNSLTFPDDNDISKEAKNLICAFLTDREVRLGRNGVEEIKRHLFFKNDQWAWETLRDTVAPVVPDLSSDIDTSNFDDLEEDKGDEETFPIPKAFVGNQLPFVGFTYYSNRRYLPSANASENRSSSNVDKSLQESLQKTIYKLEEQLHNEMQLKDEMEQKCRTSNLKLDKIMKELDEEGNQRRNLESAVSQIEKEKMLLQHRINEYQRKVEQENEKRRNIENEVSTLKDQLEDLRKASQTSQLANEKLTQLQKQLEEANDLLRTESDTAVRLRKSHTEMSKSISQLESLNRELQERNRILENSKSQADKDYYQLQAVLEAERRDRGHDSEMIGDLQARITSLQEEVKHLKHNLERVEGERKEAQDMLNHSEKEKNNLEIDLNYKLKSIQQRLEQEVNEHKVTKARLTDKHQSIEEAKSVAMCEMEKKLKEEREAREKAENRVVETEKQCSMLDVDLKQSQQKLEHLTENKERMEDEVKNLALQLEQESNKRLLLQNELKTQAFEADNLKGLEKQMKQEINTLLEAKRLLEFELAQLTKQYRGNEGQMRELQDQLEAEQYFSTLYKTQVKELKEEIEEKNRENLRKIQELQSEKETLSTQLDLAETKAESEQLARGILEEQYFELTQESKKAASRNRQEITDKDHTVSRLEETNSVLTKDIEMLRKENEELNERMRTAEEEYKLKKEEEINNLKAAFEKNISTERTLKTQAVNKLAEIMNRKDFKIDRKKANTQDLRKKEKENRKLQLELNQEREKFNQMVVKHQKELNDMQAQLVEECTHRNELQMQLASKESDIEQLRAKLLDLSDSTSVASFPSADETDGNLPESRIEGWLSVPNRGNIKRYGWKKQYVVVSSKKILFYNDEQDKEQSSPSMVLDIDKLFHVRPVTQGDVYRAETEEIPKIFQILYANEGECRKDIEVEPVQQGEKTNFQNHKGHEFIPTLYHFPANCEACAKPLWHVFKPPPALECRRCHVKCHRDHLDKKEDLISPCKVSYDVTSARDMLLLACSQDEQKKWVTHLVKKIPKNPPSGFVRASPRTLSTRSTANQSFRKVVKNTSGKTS

Variant	effect of a mutation on the interaction
T173R	disrupting interaction

Variants of: B1
Conditions: with rock1_mouse Rock1, P70335
Remark: another data set of the same source

Variant	effect of a mutation on the interaction
V192R	disrupting interaction
